Results published in US20100255008A1 (Hoffmann-La Roche, published 2010).

How the values were obtained:
[1] = target: T1, Biotinylated human soluble TWEAK (human, UniProt O43508 99-249, limits assumed, biotinylated (sites not given)); assay: Biacore SPR, biotinylated human soluble TWEAK on streptavidin sensor, antibody 100 nM as analyte, 25° C.
T1 construct: also called Human TWEAK
T1 sequence (looked up): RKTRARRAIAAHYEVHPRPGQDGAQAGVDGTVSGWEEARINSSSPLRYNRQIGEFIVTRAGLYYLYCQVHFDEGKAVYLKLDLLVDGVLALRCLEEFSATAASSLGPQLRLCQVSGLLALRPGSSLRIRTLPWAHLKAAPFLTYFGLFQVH
Method: A Biacore 2000 instrument was used with a Biacore streptavidin coated sensor mounted into the system. The system buffer HBS-ET (10 mM HEPES pH 7.4, 150 mM NaCl, 1 mM EDTA, 0.05% Tween® 20) was used at a flow rate of 100 μl/min. The sample buffer was the system buffer. Biotinylated human soluble TWEAK and biotinylated murine soluble TWEAK was immobilized on different flow cells on the SA sensor at 150 RU each. The flow cell FC1 was used as a blank reference cell. Each antibody was injected into the system as an analyte at 100 nM at 100 μl/min for 2 min association time. The dissociation of the immunecomplexes were monitored for 5 min. The sensor surface was washed with HBS-ET for 10 seconds and regenerated using 2×2 minutes injections with 10 mM glycine pH 2.25. This procedure was done at 25° C. The kinetically rate limiting step of the complex dissociation phase in the interval [240 s-300 s] was taken to calculate the dissociation rate kd [1/s] (Biacore Evaluation Software 4.0). According to the equation t1/2 diss=ln(2)/(60×kd), the half-life of each immunocomplexe in minutes was calculated.

[2] = target: T2, human Flag-tagged soluble TWEAK (amino acids 106-249) (human, UniProt O43508 106-249); assay: receptor interaction ELISA: antibody pre-incubated with human Flag-tagged soluble TWEAK, binding to coated human Fn14:Fc
T2 construct: the tag is put first here only by convention; also called Human TWEAK; not shown: Flag tag
T2 sequence (looked up): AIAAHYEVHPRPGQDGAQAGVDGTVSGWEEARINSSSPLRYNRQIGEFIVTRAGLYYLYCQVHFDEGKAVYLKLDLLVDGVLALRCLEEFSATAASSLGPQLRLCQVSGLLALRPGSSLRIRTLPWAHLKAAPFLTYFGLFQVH
Method: Blocking of human TWEAK/human Fn14 interaction was shown by receptor interaction ELISA. 96-well Maxisorp® plates (Nunc) were coated with 100 μl 1 μg/ml human Fn14:Fc (extracellular domain of human Fn14 (amino acids 1-75) fused to Fc portion of human IgG1) in PBS per well for 1.5 h at room temperature and blocked with a solution of 5% FBS in PBS for 30 minutes at room temperature under shaking. […] Wells were filled with 100 μl of anti-FLAG-HRP detection antibody, diluted 1:5000 in blocking buffer, and incubated for 1 h at room temperature. After four more wash steps, the signal was developed by addition of 100 μl 3,3,5,5-Tetramethylbenzidine (TMB) solution for approximately ten minutes. The reaction was stopped by adding 100 μl of 1 N HCl, and absorbance measured at 450 nm (reference wavelength 620 nm).

[3] = target: T3, Human recombinant soluble TWEAK (human, UniProt O43508 99-249, limits assumed); assay: cell-based or functional assay
T3 sequence (looked up): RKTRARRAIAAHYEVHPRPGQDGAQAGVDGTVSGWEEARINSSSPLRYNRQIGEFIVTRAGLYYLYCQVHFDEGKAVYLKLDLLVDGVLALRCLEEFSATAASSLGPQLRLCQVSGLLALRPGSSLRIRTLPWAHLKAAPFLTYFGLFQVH

B1: TW212chi (antibody, human IgG1)
light: DIVLTQSPAYLTMSPGQTTTISCKASQSVSIGPIHLMHWYQQKPGQPPRLLIYGASNPESGVPARFSGSGSGTDFTLTIHPVEADDAATYFCQQGKESPRTFGPGTKLEITRTVAAPSVFIFPPSDEQLKSGTASVVCLLNNFYPREAKVQWKVDNALQSGNSQESVTEQDSKDSTYSLSSTLTLSKADYEKHKVYACEVTHQGLSSPVTKSFNRGEC
heavy: not shown
t/2 diss [min] 25° C. [1]: 13 min
IC50 [2]: 0.0134 µg/mL

B2: Antibody 15 (antibody, V domains shown)
VH: QVQLQESGPGLVKPSETLSLTCAVSGYSIRSGYWWSWIRQPPGKGLEWIGQIYNKGNTDNNPALKSRVTISVDTSKNQFSLKLSSVTAADTAVYYCARVFWDDAYFDVWGQGTMVTVSS
VL: EIVLTQSPATLSLSPGERATLSCKASQSVSIGPIHLMHWYQQKPGQAPRLLIYGASNPESGIPARFSGSGSGTDFTLTISSLEPEDFAVYYCQQGKESPRTFGQGTKLEIK
IL-8 Secretion IC50 [3]: 0.141 µg/mL
t/2 diss. [min] 25° C. [1]: 18 min
IC50 [2]: 0.014 µg/mL

B3: Antibody 19 (antibody, V domains shown)
VH: QVQLQESGPGLVKPSETLSLTCAVSGYSIRSGYWWSWIRQQPGKGLEWIGQIYNKGNTDNNPALKSQVTISVDTSKNQFSLKLSSVTAADTAVYYCARVFWDDAYFDVWGQGTMVTVSS
VL: EIVLTQSPATLSLSPGERATLSCKASQSVSIGPIHLMHWYQQKPGQAPRLLIYGASNPESGIPARFSGSGSGTDFTLTISSLEPEDFAVYYCQQGKESPRTFGQGTKLEIK
IL-8 Secretion IC50 [3]: 0.253 µg/mL
t/2 diss. [min] 25° C. [1]: 17 min
IC50 [2]: 0.015 µg/mL

B4: Antibody 20 (antibody, V domains shown)
VH: QVQLQESGPGLVKPSETLSLTCAVSGYSIRSGYWWSWIRQQPGKGLEWIGQIYNKGNTDNSPSLKSQVTISVDTSKNQFSLKLSSVTAADTAVYYCARVFWDDAYFDVWGQGTMVTVSS
VL: EIVLTQSPATLSLSPGERATLSCKASQSVSIGPIHLMHWYQQKPGQAPRLLIYGASNPESGIPARFSGSGSGTDFTLTISSLEPEDFAVYYCQQGKESPRTFGQGTKLEIK
IL-8 Secretion IC50 [3]: 0.401 µg/mL
t/2 diss. [min] 25° C. [1]: 15 min
IC50 [2]: 0.035 µg/mL

B5: Antibody 24 (antibody, V domains shown)
VH: QVQLQESGPGLVKPSETLSLTCTVSGYSIRSGYWWSWIRQPPGKGLEWIGQIYNKGNTDNSPSLKSRVTISVDTSKNQFSLKLSSVTAADTAVYYCARVFWDDAYFDVWGQGTMVTVSS
VL: EIVLTQSPGTLSLSPGERATLSCKASQSVSIGPIHLMHWYQQKPGQAPRLLIYGASNPESGIPDRFSGSGSGTDFTLTISRLEPEDFAVYYCQQGKESPRTFGQGTKLEIK
IL-8 Secretion IC50 [3]: 0.165 µg/mL
t/2 diss. [min] 25° C. [1]: 15 min
IC50 [2]: 0.02 µg/mL

B6: Antibody 17 (antibody, V domains shown)
VH: QVQLQESGPGLVKPSETLSLTCTVSGYSIRSGYWWSWIRQPPGKGLEWIGQIYNKGNTDNNPALKSRVTISVDTSKNQFSLKLSSVTAADTAVYYCARVFWDDAYFDVWGQGTMVTVSS
VL: EIVLTQSPATLSLSPGERATLSCKASQSVSIGPIHLMHWYQQKPGQAPRLLIYGASNPESGIPARFSGSGSGTDFTLTISSLEPEDFAVYYCQQGKESPRTFGQGTKLEIK
IL-8 Secretion IC50 [3]: 0.146 µg/mL
t/2 diss. [min] 25° C. [1]: 18 min
IC50 [2]: 0.014 µg/mL

B7: Antibody 26 (antibody, V domains shown)
VH: QVQLQESGPGLVKPSETLSLTCAVSGYSIRSGYWWSWIRQQPGKGLEWIGQIYNKGNTDNSPSLKSQVTISVDTSKNQFSLKLSSVTAADTAVYYCARVFWDDAYFDVWGQGTMVTVSS
VL: EIVLTQSPGTLSLSPGERATLSCKASQSVSIGPIHLMHWYQQKPGQAPRLLIYGASNPESGIPDRFSGSGSGTDFTLTISRLEPEDFAVYYCQQGKESPRTFGQGTKLEIK
IL-8 Secretion IC50 [3]: 0.222 µg/mL
t/2 diss. [min] 25° C. [1]: 16 min
IC50 [2]: 0.094 µg/mL

B8: Antibody 23 (antibody, V domains shown)
VH: QVQLQESGPGLVKPSETLSLTCTVSGYSIRSGYWWSWIRQPPGKGLEWIGQIYNKGNTDNNPALKSRVTISVDTSKNQFSLKLSSVTAADTAVYYCARVFWDDAYFDVWGQGTMVTVSS
VL: EIVLTQSPGTLSLSPGERATLSCKASQSVSIGPIHLMHWYQQKPGQAPRLLIYGASNPESGIPDRFSGSGSGTDFTLTISRLEPEDFAVYYCQQGKESPRTFGQGTKLEIK
IL-8 Secretion IC50 [3]: 0.242 µg/mL
t/2 diss. [min] 25° C. [1]: 17 min
IC50 [2]: 0.013 µg/mL

B9: Antibody 21 (antibody, V domains shown)
VH: QVQLQESGPGLVKPSETLSLTCAVSGYSIRSGYWWSWIRQPPGKGLEWIGQIYNKGNTDNNPALKSRVTISVDTSKNQFSLKLSSVTAADTAVYYCARVFWDDAYFDVWGQGTMVTVSS
VL: EIVLTQSPGTLSLSPGERATLSCKASQSVSIGPIHLMHWYQQKPGQAPRLLIYGASNPESGIPDRFSGSGSGTDFTLTISRLEPEDFAVYYCQQGKESPRTFGQGTKLEIK
IL-8 Secretion IC50 [3]: 0.224 µg/mL
t/2 diss. [min] 25° C. [1]: 17 min
IC50 [2]: 0.012 µg/mL

B10: Antibody 25 (antibody, V domains shown)
VH: QVQLQESGPGLVKPSETLSLTCAVSGYSIRSGYWWSWIRQQPGKGLEWIGQIYNKGNTDNNPALKSQVTISVDTSKNQFSLKLSSVTAADTAVYYCARVFWDDAYFDVWGQGTMVTVSS
VL: EIVLTQSPGTLSLSPGERATLSCKASQSVSIGPIHLMHWYQQKPGQAPRLLIYGASNPESGIPDRFSGSGSGTDFTLTISRLEPEDFAVYYCQQGKESPRTFGQGTKLEIK
IL-8 Secretion IC50 [3]: 0.475 µg/mL
t/2 diss. [min] 25° C. [1]: 17 min
IC50 [2]: 0.042 µg/mL

B11: Antibody 18 (antibody, V domains shown)
VH: QVQLQESGPGLVKPSETLSLTCTVSGYSIRSGYWWSWIRQPPGKGLEWIGQIYNKGNTDNSPSLKSRVTISVDTSKNQFSLKLSSVTAADTAVYYCARVFWDDAYFDVWGQGTMVTVSS
VL: EIVLTQSPATLSLSPGERATLSCKASQSVSIGPIHLMHWYQQKPGQAPRLLIYGASNPESGIPARFSGSGSGTDFTLTISSLEPEDFAVYYCQQGKESPRTFGQGTKLEIK
IL-8 Secretion IC50 [3]: 0.189 µg/mL
t/2 diss. [min] 25° C. [1]: 16 min
IC50 [2]: 0.016 µg/mL

B12: Antibody 16 (antibody, V domains shown)
VH: QVQLQESGPGLVKPSETLSLTCAVSGYSIRSGYWWSWIRQPPGKGLEWIGQIYNKGNTDNSPSLKSRVTISVDTSKNQFSLKLSSVTAADTAVYYCARVFWDDAYFDVWGQGTMVTVSS
VL: EIVLTQSPATLSLSPGERATLSCKASQSVSIGPIHLMHWYQQKPGQAPRLLIYGASNPESGIPARFSGSGSGTDFTLTISSLEPEDFAVYYCQQGKESPRTFGQGTKLEIK
IL-8 Secretion IC50 [3]: 0.163 µg/mL
t/2 diss. [min] 25° C. [1]: 15 min
IC50 [2]: 0.022 µg/mL

B13: Antibody 22 (antibody, V domains shown)
VH: QVQLQESGPGLVKPSETLSLTCAVSGYSIRSGYWWSWIRQPPGKGLEWIGQIYNKGNTDNSPSLKSRVTISVDTSKNQFSLKLSSVTAADTAVYYCARVFWDDAYFDVWGQGTMVTVSS
VL: EIVLTQSPGTLSLSPGERATLSCKASQSVSIGPIHLMHWYQQKPGQAPRLLIYGASNPESGIPDRFSGSGSGTDFTLTISRLEPEDFAVYYCQQGKESPRTFGQGTKLEIK
IL-8 Secretion IC50 [3]: 0.249 µg/mL
t/2 diss. [min] 25° C. [1]: 14 min
IC50 [2]: 0.017 µg/mL

B14: TW202 (antibody, V domains shown)
VH: QLQLQESGLGLVKPSQSLTLTCSVTGFSITTPDYSWHWIRQLPGQTLEWMGFLYYEGDTYYNPSLKSRISIARDASKNQFFLQLKAVTTEDTATYFCARRKYSGYGNWFAYWGQGTLVTVSL
VL: QPVLTQSPSASASLRASVKLTCTLSSQHSTYYIEWYQQRPDKAPKYVMYLDSDGSHIKGDGIPDRFSGSSSGAHRYLSISNLQPEDEAIYHCGVYDSTAGAVFGSGTQLTVLG
notes: Armenian hamster monoclonal antibody; also called Antibody 202
IL-8 Secretion IC50 [3]: 0.146 µg/mL
t/2 diss [min] 25° C. [1]: 53 min
IC50 [2]: 0.0092 µg/mL

B15: TW205 (antibody, V domains shown)
VH: QIHLQESGLGLVKPSQSLTLTCSVTGFSITTPDYSWHWIRQFPGQTLEWMGFLYYEGDTYYNPSLKSRISIARDASKNQFFLQLKSVTTEDTATYFCVRRKYSGYGNWFAYWGQGTQVTVSS
VL: QPVLTQAPSASASLRASVKLTCTLSSQHSTYYIEWYQQHPDKAPRYVMYVDSDGSHIKGDGVPDRFSGSSSGARRYLSISNLQPEDEAIYHCGVYDSTAGAVFGSGTQLTVLG
notes: Armenian hamster monoclonal antibody; also called Antibody 205
IL-8 Secretion IC50 [3]: 0.151 µg/mL
t/2 diss [min] 25° C. [1]: 30 min
IC50 [2]: 0.0088 µg/mL
